The target in this experiment is Rac-GFP (UniProt P63000). Nature of the experiment: FRET or BRET; FLIM-FRET (donor lifetime, time-gated fast-FLIM prototype, five gates of 2.25 ns, up to 1 FLIM image per s) in living 3T3 cells co-transfected with donor Rac-GFP and acceptor PBD-mCherry or mCherry alone; analysed by mfD, polar approach and moments method. Background: Bioluminescence resonance energy transfer reports proximity on the nanometre scale.

PBD-mCherry (domain or fragment), sequence (Q13153 2-545): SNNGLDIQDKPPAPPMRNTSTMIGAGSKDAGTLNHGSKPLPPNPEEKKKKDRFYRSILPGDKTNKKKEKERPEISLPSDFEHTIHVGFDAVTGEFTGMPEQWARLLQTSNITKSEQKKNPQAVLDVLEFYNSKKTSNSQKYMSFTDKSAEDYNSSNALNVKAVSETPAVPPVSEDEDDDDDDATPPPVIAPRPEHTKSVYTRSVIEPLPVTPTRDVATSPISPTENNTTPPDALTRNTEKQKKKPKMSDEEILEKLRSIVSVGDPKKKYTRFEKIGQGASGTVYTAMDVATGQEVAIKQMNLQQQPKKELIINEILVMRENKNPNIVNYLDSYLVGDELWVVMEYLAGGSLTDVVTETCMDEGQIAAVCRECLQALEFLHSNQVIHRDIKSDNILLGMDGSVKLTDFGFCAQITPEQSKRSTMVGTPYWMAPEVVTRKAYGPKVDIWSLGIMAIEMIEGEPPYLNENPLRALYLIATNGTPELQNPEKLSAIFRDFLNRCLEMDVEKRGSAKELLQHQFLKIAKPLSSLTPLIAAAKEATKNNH

Substance PBD-mCherry (domain or fragment) displayed a mean donor lifetime <τ> (population of cells, n = 10) of 2.37 ns; a mean donor lifetime <τ> (single cell, corrected) of 2.21; a minimal fraction of interacting donor mfD (representative cell) of 0.19; a non-corrected average donor lifetime (representative cell) of 2.3 ns.

The record behind these values is PMC3715500.
